# Reference: patent publication US9315837B2, “Desaturases of a green microalga and uses thereof” (Ben Gurion University of the Negev Research and Development …, priority 2010, dated 2016)
# Where “and” joins values, the source holds several entries; their conditions need not be identical. Identical values can stand only once. Marks after values point to notes of the source that are not given here.
# B1: PiDes12: P. incisa Δ12 desaturase, predicted protein of 380 amino acids, SEQ ID NO: 1 (protein, listed as Parietochloris incisa)
# chain: MGKGGCYQAGPPSAKKWESRVPTAKPEFTIGTLRKAIPVHCFERSIPRSFAYLAADLAAIAVMYYLSTFIDHPAVPRVLAWGLLWPAYWYFQGAVATGVWVIAHECGHQAFSPYQWLNDAVGLVLHSCLLVPYYSWKHSHRRHHSNTGSTTKDEVFVPREAAMVESDFSLMQTAPARFLVIFVSLTAGWPAYLFANASGRKYGKWANHFDPYSPIFTKRERSEIVVSDVALTVVIAGLYSLGKAFGWAWLVKEYVIPYLIVNMWLVMITLLQHTHPELPHYADKEWDWLRGALATCDRSYGGMPDHLHHHIADTHVAHHLFSTMPHYHAQEATEAIKPILGKYYKQDKRNVWAALWEDFSLCRYVAPDTAGSGILWFRA
# B2: PiDes5: P. incisa Δ5 desaturase, predicted protein of 482 amino acids, SEQ ID NO: 3 (protein, listed as Parietochloris incisa)
# chain: MMAVTEGAGGVTAEVGLHKRSSQPRPAAPRSKLFTLDEVAKHDSPTDCWVVIRRRVYDVTAWVPQHPGGNLIFVKAGRDCTQLFDSYHPLSARAVLDKFYIGEVDVRPGDEQFLVAFEEDTEEGQFYTVLKKRVEKYFRENKLNPRATGAMYAKSLTILAGLALSFYGTFFAFSSAPASLLSAVLLGICMAEVGVSIMHDANHGAFARNTWASHALGATLDIVGASSFMWRQQHVVGHHAYTNVDGQDPDLRVKDPDVRRVTKFQPQQSYQAYQHIYLAFLYGLLAIKSVLLDDFMALSSGAIGSVKVAKLTPGEKLVFWGGKALWLGYFVLLPVVKSRHSWPLLAACWLLSEFVTGWMLAFMFQVAHVTSDVSYLEADKTGKVPRGWAAAQAATTADFAHGSWFWTQISGGLNYQVVHHLFPGICHLHYPAIAPIVLDTCKEFNVPYHVYPTFVRALAAHFKHLKDMGAPTAIPSLATVG
# B3: PiDes6: P. incisa Δ6 desaturase, predicted protein of 481 amino acids, SEQ ID NO: 2 (protein, listed as Parietochloris incisa)
# chain: MCQGQAVQGLRRRSSFLKLTGDAIKGAVAAISDFNKLPAATPVFARRSLSDSALQQRDGPRSKQQVTLEELAQHNTPEDCWLVIKNKVYDVSGWGPQHPGGHVIYTYAGKDATDVFACFHAQTTWSQLRPFCIGDIVEEEPMPALLKDFRELRTRLQQQGLFRSNKLYYLYKVASTLSLLAAALAVLITQRDSWLGLVGGAFLLGLFWQQSGWLAHDFLHHQVFTDRQWNNVMGYFLGNVCQGFSTDWWKSKHNVHHAVPNELDSDSKAARDPDIDTLPLLAWSSEMLDSMSNSGARLFVRMQHYFFFPILLFARMSWCQQSVAHASDLSRTSKAGVYELAYLALHYAWFLGAAFSVLPPLKAVVFALLSQMFSGFLLSIVFVQSHNGMEVYSDTKDFVTAQIVSTRDILSNVWNDWFTGGLNYQIEHHLFPTLPRHNLGKVQKSIMELCHKHGLVYENCGMATGTYRVLQRLANVAAEA
# Experiments:
# [1] = test system: supplied fatty acids in S. cerevisiae strain W303; experiment: Functional expression of PiDes12, PiDes6 and PiDes5 in S. cerevisiae fed with fatty acid substrates, GC of FAMEs; format: cell-based, Saccharomyces cerevisiae; settings: for substrate conversion (ARA emergence after addition of DGLA): PiDes5 transformant, total fatty acids
# Text: (§1) The open reading frames (ORFs) encoding for the […], Δ6, and Δ5 desaturases were amplified using PfuUltra II fusion HS DNA polymerase (Stratagene, La Jolla, Calif., USA) with the respective primer pairs (Table 1). The forward primers contained a restriction site (underlined) and a yeast translation consensus (double underlined) followed by ATG. The reverse primers contained a restriction site (underlined) and a stop codon (double underlined). Following restriction and ligation to the pYES2 vector (Invitrogen, Carlsbad, Calif., USA), the constructs were used to transform S. cerevisiae strain W303 by the PEG/lithium acetate method [R. D. Gietz, R. A. Woods, Yeast Transformation by the LiAc/SS Carrier DNA/PEG Method, in: W. Xiao (Ed.), Yeast Protocols, Second Edition, vol. 313, Methods in Molecular Biology, Humana Press Inc, Totowa, N. J., 2006, pp. 107-120]. The yeast cells harboring the empty pYES2 vector were used as control. Transformants were selected by uracil prototrophy on yeast synthetic medium (YSM) lacking uracil (Invitrogen, Carlsbad, Calif., USA). For functional expression, a minimal selection medium containing 2% (w/v) raffinose was inoculated with the pYPiDesΔ12, pYPiDesΔ6 or pYPiDesΔ5 transformants and grown at 27° C. for 24 h in a water bath shaker. Five ml of sterile YSM, containing 1% (w/v) Tergitol-40 and 250 µM of the appropriate fatty acid substrate was inoculated with raffinose-grown cultures to obtain an OD of 0.2 at 600 nm. Expression was induced by adding galactose to a final concentration of 2% (w/v) and cultures were further grown at 27° C. for 48 h. Cells were harvested by centrifugation, washed twice with 0.1% NaHCO^3, freeze-dried and used for fatty acid analysis.
# (§2) Fatty acid methyl esters (FAMES) were obtained by transmethylation of the freeze-dried P. incisa or yeast biomass, with dry methanol containing 2% H2SO4 (v/v) and heating at 80° C. for 1.5 h while stirring under an argon atmosphere. Gas chromatographic analysis of FAMES was performed on a Thermo Ultra Gas chromatograph (Thermo Scientific, Italy) equipped with PTV injector, FID detector and a fused silica capillary column (30 m×0.32 mm; ZB WAXplus, Phenomenex). FAMES were identified by co-chromatography with authentic standards (Sigma Chemical Co., St. Louis, Mo.; Larodan Fine Chemicals, Malmo, Sweden) and FAME of fish oil (Larodan Fine Chemicals). Each sample was analyzed in duplicates of three independent experiments. The structures of fatty acids were confirmed by GC-MS of their pyrrolidine derivatives [W. W. Christie, The analysis of fatty acids in: W. W. Christie (Ed.), Lipid analysis Isolation, separation, identification and structural analysis of lipids, vol. 15, Third edition, The Oily Press, Bridgewater, England, 2003, pp. 205-225] on HP 5890 equipped with a mass selective detector (HP 5971A) utilizing a HP-5 capillary column and a linear temperature gradient from 120 to 300° C.
# The functional activities of the proteins encoded by PiDes12, PiDes6 and PiDes5 were examined by heterologous expression in S. cerevisiae. To this aim, the pYES2 constructs pYPiDes12, pYPiDes6 and pYPiDes5 containing the ORFs for PiDes12, PiDes6, and PiDes5, respectively, were transformed into S. cerevisiae. […] An attempt to improve the expression of the recombinant protein and to increase the activity by the modification of yeast translation consensus was not successful.
# PiDes6 and PiDes5 expressions were induced in the presence of the main ω6 substrates for Δ6 or Δ5 fatty acid desaturases, 18:2ω6 and 20:3ω6, respectively. New peaks corresponding to 18:3ω6 and 20:4ω6, respectively, were detected, confirming the predicted function of PiDes6 and PiDes5. […] PiDes6 was not active on […] either, whereas PiDes5 desaturated it to the non-methylene-interrupted 20:4^Δ5,11,14,17. PiDes5 converted 20:4ω3 into the respective Δ5 product, 20:5ω3 (EPA) as well as the added 18:1 into the non-methylene-interrupted 18:2^Δ5,9 (FIG. 3). […]
# [2] = test system: 20:3ω6 in lipid classes of S. cerevisiae; experiment: Fatty acid analysis of individual lipid classes of S. cerevisiae expressing the PiDes5 ORF, fed with 20:3ω6; format: cell-based, Saccharomyces cerevisiae; settings: for % conversion: 24 h after feeding 20:3ω6
# Text: as §1, §2
# The biomass of S. cerevisiae was heated with isopropanol at 80° C. for 10 min and lipids were extracted by the method of Bligh-Dyer (1959) [E. G. Bligh, W. J. Dyer, A rapid method of total lipid extraction and purification, Can. J. Biochem. Physiol. 37 (1959) 911-917]. Total lipid extract was separated into neutral and polar lipids by silica Bond-Elute cartridges (Varian, Calif.) using 1% of ethanol in chloroform (v/v) and methanol to elute neutral and polar lipids, respectively [Z. Cohen, S. Didi, Y. M. Heimer, Overproduction of γ-linolenic and eicosapentaenoic acids by algae, Plant Physiol. 98 (1992) 569-572]. […]
# [3] = substrate 18:1^Δ9, PiDesΔ5 product 18:2^Δ5,9, product/(substrate + product)
# [4] = substrate 18:3^Δ9,12,15, PiDesΔ6 product 18:4^Δ6,9,12,15, PiDesΔ5 product 18:4^Δ5,9,12,15 (tentative identification)
# [5] = substrate 20:3^Δ11,14,17, PiDesΔ5 product 20:4^Δ5,11,14,17
molecule,measurement,setting,value
B1,desaturation activity,[1]; heterologous expression in yeast,very low desaturation activity
same,peak corresponding to 18:2,[1]; yeast transformed with pYPiDes12,0.3 % of TFA
B2,substrate conversion (ARA emergence after addition of DGLA),[1]; after 3 h,10.9% and 10.6%
same,substrate conversion (ARA emergence after addition of DGLA),[1]; after 24 h,15.1%
same,Desaturase product and conversion (%) of supplied fatty acid,[1]; [3],"18:2^Δ5,9 (4.2) %"
same,Desaturase product and conversion (%) of supplied fatty acid,[1]; [4],"18:4^Δ5,9,12,15** (1.4) %"
same,Desaturase product and conversion (%) of supplied fatty acid,"[1]; substrate 20:3^Δ8,11,14, PiDesΔ5 product 20:4^Δ5,8,11,14","20:4^Δ5,8,11,14 (16.4) %"
same,Desaturase product and conversion (%) of supplied fatty acid,[1]; [5],"20:4^Δ5,11,14,17 (10.0) %"
same,Desaturase product and conversion (%) of supplied fatty acid,"[1]; substrate 20:4^Δ8,11,14,17, PiDesΔ5 product 20:5^Δ5,8,11,14,17","20:5^Δ5,8,11,14,17 (17.1) %"
same,"20:4ω6, fatty acid composition",[2]; lipid class DAG,2.0 % of total fatty acids
same,% conversion,[2]; lipid class DAG,24.0%
same,"20:4ω6, fatty acid composition",[2]; lipid class FFA,3.6 % of total fatty acids
same,% conversion,[2]; lipid class FFA,17.2%
same,"20:4ω6, fatty acid composition",[2]; lipid class PC,3.6 % of total fatty acids
same,% conversion,[2]; lipid class PC,24.2%
same,"20:4ω6, fatty acid composition",[2]; lipid class PE,1.6 % of total fatty acids
same,% conversion,[2]; lipid class PE,24.6%
same,"20:4ω6, fatty acid composition",[2]; lipid class PI + PS,1.1 % of total fatty acids
same,% conversion,[2]; lipid class PI + PS,18.1%
same,"20:4ω6, fatty acid composition",[2]; lipid class SE,1.1 % of total fatty acids
same,% conversion,[2]; lipid class SE,8.4%
same,"20:4ω6, fatty acid composition",[2]; lipid class TAG,2.0 % of total fatty acids
same,% conversion,[2]; lipid class TAG,9.3%
same,20:4ω6 share by lipid class (% of total lipid),[2]; share found in lipid class DAG,1.4 % TL
same,20:4ω6 share by lipid class (% of total lipid),[2]; share found in lipid class FFA,9.1 % TL
same,20:4ω6 share by lipid class (% of total lipid),[2]; share found in lipid class PC,25.7 % TL
same,20:4ω6 share by lipid class (% of total lipid),[2]; share found in lipid class PE,2.3 % TL
same,20:4ω6 share by lipid class (% of total lipid),[2]; share found in lipid class PI + PS,4.4 % TL
same,20:4ω6 share by lipid class (% of total lipid),[2]; share found in lipid class SE,1.8 % TL
same,20:4ω6 share by lipid class (% of total lipid),[2]; share found in lipid class TAG,55.2 % TL
B3,Desaturase product and conversion (%) of supplied fatty acid,[1]; [3],neither active
same,Desaturase product and conversion (%) of supplied fatty acid,"[1]; substrate 18:2^Δ9,12, PiDesΔ6 product printed 18:2^Δ6,9,12, product/(substrate + product)","18:2^Δ6,9,12 (5.1) %"
same,Desaturase product and conversion (%) of supplied fatty acid,[1]; [4],"18:4^Δ6,9,12,15 (4.5) %"
same,Desaturase product and conversion (%) of supplied fatty acid,[1]; [5],not active
